assay: soluble on expression in E. coli; label from the status in PepcDB or PDB records

| Sequence | soluble on expression in E. coli |
| --- | --- |
| MSLALNLSKAVVGYLQVRPEEKFTARQIAEWVFATYPAECQEKRANSRGDYIKSDADLVQQLVAEISSQRPRMQMKHPALKTTEGRPRKYYYSEKSDSAEVAAAEGEGATAAADIGTSMLDEHALYPLLSQYLWEEFGVFSKRINEKRSSNKRGPNGNRWLYPDMVGMQDLGADWHREVRDCVKQYSDKRTKLWSFEVKLLINRSNIRECFFQAVSNSSWSNFGYLVAAEVSGQETLKELRMLFAAHGIGFIRLDVDNPADSQVLIPARERDAIDWDMANRLATENRDFLNYVKQVKQFYQTGEARFKDWDVPEEYSIQEGHHHHHH | soluble |
| MSLALPDFEFSFATRDEFDRKPVAKKLINILNSNIDISPMVIDGSWGTGKTEFCRKTIKLINDEFNETLICAYIDAFEADHTNDPLIPIVAAISELIEDSSKKIAFLNKAKAIFRYGLKASARASVAWLLRSNTETLDQEFQKELEKAVDEGSQNLVDGVITDYQEAKKDINSLKLILQDLTVEKKLVIFIDELDRCKPDFAIAIIEKIKHVFDVANVKFILVTNYTQMKASVNHCYGLALDAHRYLDKFIKFKFYLPTDKYSNKRKQHVSYHYADQLIRNSDILKAHSRYYLDSRFDLLNNLIIINELSLREISNFILYLELFHTLKSDQFAPDKWYHLSIFIIFILYFKPELREKIRKKDILASELCKFLGINSHIKAKELTHDKDGVSRDIATLIMIFLNDNSIPGYQSDDEEDFKGWLSKLALSTNVGYLELITYIEQFINDIFNEFQFVTKAAALEHHHHHH | soluble |
| MSLAPRPRILICEDDPDIARLLNLMLEKGGFDSDMVHSAAQALEQVARRPYAAMTVDLNLPDQDGVSLIRALRRDSRTRDLAIVVVSANAREGELEFNSQPLAVSTWLEKPIDENLLILSLHRAIDNMAEGKPRILHVEDDLDIQRIAAAIAQNFATFEFACTLQEARDQLASHHYDLVLLDLTLKDGSGWELLSTIEALDPAPPVVVFSASKLNMMESQRVEAVLVKADTSNEELIRVLQRVLDDSLWGTVDSPLSEGHHHHHH | soluble |
| MSLAQFYSAKRRTTTRQIITVSVNDLDSFGQGVARHNGKTLFIPGLLPQENAEVTVTEDKKQYARAKVVRRLSDSPERETPRCPHFGVCGGCQQQHASVDLQQRSKSAALARLMKHDVSEVIADVPWGYRRRARLSLNYLPKTQQLQMGFRKAGSSDIVDVKQCPILAPQLEALLPKVRACLGSLQAMRHLGHVELVQATSGTLMILRHTAPLSSADREKLERFSHSEGLDLYLAPDSEILETVSGEMPWYDSNGLRLTFSPRDFIQVNAGVNQKMVARALEWLDVQPEDRVLDLFCGMGNFTLPLATQAASVVGVEGVPALVEKGQQNARLNGLQNVTFYHENLEEDVTKQPWAKNGFDKVLLDPARAGAAGVMQQIIKLEPIRIVYVSCNPATLARDSEALLKAGYTIARLAMLDMFPHTGHLESMVLFSRVKEGHHHHHH | soluble |
| MSLAQKRYKHILWDLDGTIIDSKIGVSESIRYCLKYFNIEVTCLDEFKPMIGPPLQDSLREIYNFSPQQVEIACKLYDEYYMKKGIHEYKVFQNIEKVLSQLQNDNKELYVATTKPEYAAKQLLADCKLDTYFKFIGGDNEEFTRSNKADVIQYVLSANNISATDNVVMIGDRKYDMLAAKKIGIDTIGVLYGYGDRNELLTNGAQYIIEEPYELLNLLKGEGHHHHHH | soluble |
| MSLAQLIFDEEKVTSVIDRIVKRTFQMDFAWDWPGGVAFYGVAEAYEATENEEYINLLKTWVDEQLEDGLPPLSINGVSIGHTLLFLHKVTGDDVYLETAAEMAEYVLHKAPRFGEGILQHTVNAAEYVFPEQAWADTLMMAGLFMLRIGRVMEREDYFEDGLRQFHGHEDVLQDPVTNLYYHAWDNKAQNHLSGIYWGRANGWAALTMAKALPLIEVTHPSFMIIDGSLRDQLSALVRLQDESGLWHTILDDPDSYLEVSASAGIASALMSSGKLYTKYVQKSLAAILDAVEEDGRVSRVSAGTAVMKNAEGYKQVPYKRIQGWGQGLALTFLADVLKTKKRLYQEGHHHHHH | soluble |
| MSLAQTQLSYKNKTYQISYEILGDLSLPQILILHGWGADKKLMKQSFCPFLKDFCQIYMDLAGFGNSSVEEILNTQDYANITELFLKQKKLNVCFFMGHSFGGKVSTLLAKEKDTLILLSSAGILAKKSLKVRFKIRIFKILKLFGLGKFYRYFASKDGANLSPIMYETFKKVVDEDFSEIFAKQKAKSLIFWGKSDEATPLYCGEKMHQFLKNSTFYPLEGDHFFFLKHSAFIAQKIKEEGHHHHHH | soluble |
| MSLARARMKERGVEVSDIAELVFFLQKKYHPDLTIDECTLNVNRVLAKREVQNAILTGIELDVLAEQKKLSEPLQTMLEIDESLYGVDEVLAFSIVNIYGSIGFTNYGYIDKEKPGILKRLNDKSTGECHTFLDDIVGAISAAASSRLAHREGHHHHHH | not soluble |
| MSLARHEAIVEPAQSTHTSGAHTSGAQAQPGVRPTTAAGRWRDVEMMAYKQDDAAPFRDVTRQLLFSDPRLACEWRYFEVAAGGYSTLEKHDHVHGVMIHRGKGQCLVGHHVSDVAVGDLVFIPPQTWHQFRANAGDVLGFLCLVNAERDRPQLPGDGDLAALRADPAIADFLSSEGHHHHHH | soluble |
| MSLARPLSFHEDRLFPSDPATRSYARGLYALVKDLPIISPHGHTDPSWFATNAPFQDATDLLLAPDHYLFRMLYSQGVSLDALKVRSKAGVPDTDPREAWRVFASHFYLFRGTPSWVWLNHVFSQVFGFTEFLEASNADDYFDRITAALATDAFRPRALFDRFNIETLATTEGPHESLQHHAAIRESGWGGHVITAYRPDAVIDFEDERSPRAFERFAETSGQDVYSWKSYLEAHRLRRQAFIDAGATSSDHGHPTAATADLSDVEAEALFNSLVKGDVTPEKAELFRAQMLTEMAKMSLDDGLVMQIHPGSHRNHNVGLLNSHGRDKGADIPMRTEYVDALKPLLTRLGNDPRLSIILFTLDETTYSRELAPLAGHYPVLKLGPSWWFHDSPEGMMRFREQVTETAGFYNTVGFNDDTRAFLSIPARHDVARRVDSAFLARMVAEHRMDLVEAEELIVDLTYNLPKKAYKLDQRPDWARPATLRAAAEEGHHHHHH | soluble |
| MSLASAMASSALREATCTMTRLAADVAASVSSIFSCKDSAGPRPVVPATKTTSTPLDVMFFTWFAKSSGSSLPPLKVVMTGATISIDSTRGALKKLARKGIKGWLNQYMATIKEIEPIVLYEQETDARWASYSILVRVVTSDGRVSYGEAVPTLRILPVVSAVRQTARAFLGRDPHEISAAFYEWYRQDFFLSRSFESATALSAIDMALWDLKARELGAPLYELLGGKLRDRVKVYANGWYGGCRDPQCFAEKAKEVVARGYDALKFDPFGPSFNSITSEELRRAEEAVAAVRDAVGDDVDILIEHHGRFNANAAVEIAKRFEPYRPYFMEEPLHHEDIEGYRKYRSLTSARIAMGERLISAKEALQYLVEGLVDVIQPDACNIGGVTGSMKVAALAEAFSVEVSYHNAYGPVQFALEVQLSAVTPTLYRLESFYDYWPQWKRDLIGDPFRLSQSSVEVPRGPGIGVAVNERVLEKYRAEPSEIPVGEEPVWVVRGTWREGHHHHHH | not soluble |
| MSLASIRDIARQAEVSPGTVSRVLNNDPTLSVAKETRTRIHQIAQALQYEKVTRKNKRIQIITYASREKEMSDPYYREIRLAIEAEVKRLNLSLKRTIRIDGQQDHIDLNKIENAGAIIVIGNFSVDALNKLKTHNANMVVINNPNTPKSIDAVYSDLDDAMTELLNRILDKGLTKIAYIGGHHTIRELNGITTTNAADVRYQAYQSWCEKHDVEEIVLLNGWGKTQGEDAVKVYLESDHAFPQVFIAGNDMIAIGILQQLQLNKKAIPEEVKLISFNDLEVIQYAVPSISSVHIPVDEFGRTAVRMAEERINNTRQIAIHVVVEAQLKARNTFKVEGHHHHHH | soluble |
| MSLASLCDLVGLPRSSFYRQSVFKVLEDQECETELRHQMQLICLEMPGYSYRRITAELHRRGWPVNHKRVLRLMRQDNLLCLRRKAFVRTTDSEHGFRVYPNLATNLMPSGLNQLWISDITYIRLQEEFVYLAIILDRYSRRVIGWSLSRHIDMELSLSALRMALSNREVLPGLIHHSDRGVQYASKAYIELLEEHKIAISMSRRGNPYDNAFAESFMKTLKYEEVLLNEYGDYREAQGNIARFIEEVYNRKRLHSSIGYLPPVEFEARVEHEISPASHPTEGHHHHHH | soluble |
| MSLASNVLLQASRLGEMVIKRGGATGLMVHRDTKENNLNVKFKFTSENQERIKAIMDIYPEGHKAGALIPLLDLAQRQHGWLPISAMHEVAKILEVPRMRAYEVATFYTMFNRQPVGKYFLQVCATTPCMLRGAETITETIEKKLGIHAGETTKDGLFTLAEVECLGACVNAPMIQINDDYFEDLTPKDVNEILDDLKAGRKPAAGPRSGRLAAEPFGELTSLKETPPGPGFGLQAALK | not soluble |
| MSLATIATLRVLLLAIPDDAAPESDLNLVSWTILNGLRRECERRGIRIVPFVSTGRRIDGAQVRQMALAERADGIVVLNDDQPELIRSLASPDMPVVIVNGEDPAMLVDTVTPENRFGARLGIEHLLALGHRRILHLTWKGRTTIQRRYDGFSDAYLAAQLPVPDNMVVEAEGYEPRHGEAAINALLDRDATVKGATAVFCAADNMALGCLKALADRDIRVPEAISVLGFDDIVPGEFSRPPLSTVSVPTDKLGAAALALIEQRLIANDPQRPAHRLELGCHLVLRGSEGHHHHHH | not soluble |
| MSLATIKDIAKEVGCSISTVSRVLNNDPTLSVGDETRSRIFEVAEEIGYRKKTLKTLVKNIAFLYWLTDNEELEDVYFQTMRVEIEKKARENNIELTTYKLEGGIEKIPLDIDGFIAVGSFMNRELEYLRELTPHGVFIDSTPDPAHYDSVRPDLAQITRQAVEVLVEQGHEKIGFIGGTYHNLDTDAEEMDGRERAFRQTMEERDLLREDFIFCRRGFSVDNGHYLMNQAVEQLGEELPTAFYVAADPIAVGCLQVLNEQQIEIPKRVSLISVNDTSISKYVSPPLTTFHIDLEEICQNAIQLLLERVLKKRNIVKTVYIGAELITRKSTEGHHHHHH | soluble |
| MSLAYISLKSNLENPKYSLNVAHLYGDLMNTYGDNGNILMLKYVGEKLGAEMTFNIVSLGDTFAKEDYDLVFWGGGQDYEQEIIADQSLIDLSAPLKDYIESEKPLLAICGGYQMLGQYYVNSEGTKIQGTGILGHYTENLRTDRFIGDIETHNEEFGETYYGFENHSGITYLSDDEKPLGTVVYGGGNNPDDQTEGLIYKNTFGTYFHGPILSRNARLAYRLVTTALYQKYGEEIQLPAFEEILADEDKGQQIGDLKRKVEKEGHHHHHH | soluble |
| MSLAYIYLMRHAKTVMNIEGRWQGINDSDIPEESLRHFEERIRFLAGKNIKAIYSSCLVRSIKSATVAASILGIDHIETVRGFNERDLGLMEGKTNDEIREKFGITDIYIASRAIESIPMVEPWPKFVGRVMATLQAFSGRDGSLVITHGGVMRAIYNTLTGSNERRVIFDNGYILKLEFSGSWRISEIIGQEGHHHHHH | soluble |
| MSLDDLLKEVLKDKRLLEVLRHLKRANVDYGKSIMLNTKIPLTEVLDVLDKLESLGLIERVTGATLKNTEAKFKLSQEVHKHHTYYRLTRDGDHLLRRLDEKDIIDAYAEIVKDDEVGLKLLYYAEELHSDHALTYSKLLRKPLEEITPKIEELERMGLMEEKNSKVIKFRERRAKPEGHHHHHH | not soluble |
